Source: patent US20050271638A1 (published 2005)

Target: T1, β-catenin (mouse, UniProt Q02248 2-781)
T1 construct: whole, on cells; Detected by immunostaining; also called B-catenin
T1 sequence (looked up): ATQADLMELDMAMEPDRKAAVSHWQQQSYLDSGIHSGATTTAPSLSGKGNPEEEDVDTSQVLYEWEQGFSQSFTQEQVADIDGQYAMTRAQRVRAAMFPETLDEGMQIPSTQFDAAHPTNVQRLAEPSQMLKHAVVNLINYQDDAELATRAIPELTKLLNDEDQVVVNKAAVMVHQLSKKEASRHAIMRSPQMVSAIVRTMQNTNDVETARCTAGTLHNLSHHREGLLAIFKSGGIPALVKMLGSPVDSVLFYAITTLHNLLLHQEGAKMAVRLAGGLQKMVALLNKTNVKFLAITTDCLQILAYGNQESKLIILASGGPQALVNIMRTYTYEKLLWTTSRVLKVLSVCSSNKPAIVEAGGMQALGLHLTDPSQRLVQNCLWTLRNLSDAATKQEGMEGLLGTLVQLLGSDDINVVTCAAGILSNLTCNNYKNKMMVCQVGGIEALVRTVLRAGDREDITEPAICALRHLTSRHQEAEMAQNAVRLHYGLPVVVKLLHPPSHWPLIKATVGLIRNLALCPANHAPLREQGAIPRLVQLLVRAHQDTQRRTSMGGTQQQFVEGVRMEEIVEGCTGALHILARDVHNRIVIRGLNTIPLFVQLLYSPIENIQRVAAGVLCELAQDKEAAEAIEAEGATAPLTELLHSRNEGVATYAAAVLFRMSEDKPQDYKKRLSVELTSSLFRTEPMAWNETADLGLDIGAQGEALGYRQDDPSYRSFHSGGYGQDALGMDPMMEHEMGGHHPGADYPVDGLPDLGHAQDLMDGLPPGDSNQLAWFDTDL
Assay: co-immunostaining of wild-type mouse intestine sections (FIG. 7G)

binding result: binds
B1: N-cadherin (other, mouse, UniProt P15116 160-906, looked up)
chain: DWVIPPINLPENSRGPFPQELVRIRSDRDKNLSLRYSVTGPGADQPPTGIFIINPISGQLSVTKPLDRELIARFHLRAHAVDINGNQVENPIDIVINVIDMNDNRPEFLHQVWNGSVPEGSKPGTYVMTVTAIDADDPNALNGMLRYRILSQAPSTPSPNMFTINNETGDIITVAAGLDREKVQQYTLIIQATDMEGNPTYGLSNTATAVITVTDVNDNPPEFTAMTFYGEVPENRVDVIVANLTVTDKDQPHTPAWNAAYRISGGDPTGRFAILTDPNSNDGLVTVVKPIDFETNRMFVLTVAAENQVPLAKGIQHPPQSTATVSVTVIDVNENPYFAPNPKIIRQEEGLHAGTMLTTLTAQDPDRYMQQNIRYTKLSDPANWLKIDPVNGQITTIAVLDRESPNVKNNIYNATFLASDNGIPPMSGTGTLQIYLLDINDNAPQVLPQEAETCETPEPNSINITALDYDIDPNAGPFAFDLPLSPVTIKRNWTINRLNGDFAQLNLKIKFLEAGIYEVPIIITDSGNPPKSNISILRVKVCQCDSNGDCTDVDRIVGAGLGTGAIIAILLCIIILLILVLMFVVWMKRRDKERQAKQLLIDPEDDVRDNILKYDEEGGGEEDQDYDLSQLQQPDTVEPDAIKPVGIRRLDERPIHAEPQYPVRSAAPHPGDIGDFINEGLKAADNDPTAPPYDSLLVFDYEGSGSTAGSLSSLNSSSSGGDQDYDYLNDWGPRFKKLADMYGGGDD
notes: whole, on cells; Detected by immunostaining
